Key:
[1] = target: recombinant human EPCR (extracellular domain Met1-Thr209, C-terminal poly-histidine tag) (human) (UniProt Q9UNN8); assay: SPR
[2] = target: EPCR (Homo sapiens) (UniProt Q9UNN8); conditions: cited from earlier work
Chain of EPCR (Homo sapiens) (Q9UNN8 18-210): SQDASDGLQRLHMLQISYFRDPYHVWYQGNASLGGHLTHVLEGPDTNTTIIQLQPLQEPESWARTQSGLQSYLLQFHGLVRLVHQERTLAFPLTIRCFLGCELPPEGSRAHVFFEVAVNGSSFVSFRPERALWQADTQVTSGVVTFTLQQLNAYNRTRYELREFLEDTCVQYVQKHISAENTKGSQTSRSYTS

Chain of recombinant human EPCR (extracellular domain Met1-Thr209, C-terminal poly-histidine tag) (human) (Q9UNN8 18-209): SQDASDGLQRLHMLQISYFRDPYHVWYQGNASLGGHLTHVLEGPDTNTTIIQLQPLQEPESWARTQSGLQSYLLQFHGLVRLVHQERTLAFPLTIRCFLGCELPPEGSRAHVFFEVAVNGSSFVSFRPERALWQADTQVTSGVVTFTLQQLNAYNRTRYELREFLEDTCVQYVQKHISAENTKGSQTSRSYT

Row | Substance | Kd [1] [nM] | Kd [2] [nM]
1 | activated protein C (commercial human purified APC) (from UniProt P04070 43-197) (enzyme) | 1000 | –
2 | Activated protein C (from UniProt P04070) | – | 32
3 | recombinant full-length DC8-containing PfEMP1 IT4VAR20 (natural protein) | 10 | –
